Data as given in doi:10.1101/2020.12.15.422916.

Columns and labels:
[1] = target: C99-derived hexameric Aβ42 (cell-derived, from CHO cells transfected with C99) (human) (UniProt P05067); test: SDS-PAGE and western blot of SDS-stable assemblies
[2] = target: C99-derived hexameric Aβ42 (cell-derived, from CHO cells transfected with C99) (human) (UniProt P05067); test: GELFrEE 8100 electrophoretic fractionation with western blot
[3] = target: assembly-impaired variant of Aβ42 from CHO cells transfected with vC42 (F19S, G37D) (human); test: SDS-PAGE and western blot of SDS-stable assemblies
[4] = target: hexameric Aβ from CHO cells transfected with C99 carrying the Arctic (E22G) FAD mutation (human); test: SDS-PAGE and western blot of SDS-stable assemblies
[5] = target: hexameric Aβ from CHO cells transfected with C99 carrying the Dutch (E22Q) FAD mutation (human); test: SDS-PAGE and western blot of SDS-stable assemblies
[6] = target: hexameric Aβ from CHO cells transfected with C99 carrying the Flemish (A21G) FAD mutation (human); test: SDS-PAGE and western blot of SDS-stable assemblies
[7] = target: hexameric Aβ from CHO cells transfected with C99 carrying the Iowa (D23N) FAD mutation (human); test: SDS-PAGE and western blot of SDS-stable assemblies
[8] = target: hexameric Aβ from CHO cells transfected with C99 carrying the Italian (E22K) FAD mutation (human); test: SDS-PAGE and western blot of SDS-stable assemblies

Question: How did the stoichiometry N [1] turn out when “C99-derived hexameric Aβ42 (cell-derived, from CHO cells transfected with C99) (from UniProt P05067 672-770) (peptide)” was run?
Answer: The stoichiometry N was 6.

Question: What about the stoichiometry N [2] of the same substance?
Answer: The stoichiometry N was 6.

Question: For “assembly-impaired variant of Aβ42 from CHO cells transfected with vC42 (F19S, G37D) (peptide)”, which stoichiometry N [3] is on record?
Answer: Its stoichiometry N is 2.

Question: With “hexameric Aβ from CHO cells transfected with C99 carrying the Arctic (E22G) FAD mutation (peptide)” as the substance, how does the stoichiometry N [4] read?
Answer: Its stoichiometry N is 6.

Question: How did the stoichiometry N [5] turn out when “hexameric Aβ from CHO cells transfected with C99 carrying the Dutch (E22Q) FAD mutation (peptide)” was run?
Answer: Its stoichiometry N is 6.

Question: For “hexameric Aβ from CHO cells transfected with C99 carrying the Flemish (A21G) FAD mutation (peptide)”, which stoichiometry N [6] is on record?
Answer: Its stoichiometry N is 6.

Question: “hexameric Aβ from CHO cells transfected with C99 carrying the Iowa (D23N) FAD mutation (peptide)” was tested. Which stoichiometry N [7] did it give?
Answer: Its stoichiometry N is 6.

Question: For “hexameric Aβ from CHO cells transfected with C99 carrying the Italian (E22K) FAD mutation (peptide)”, which stoichiometry N [8] is on record?
Answer: Its stoichiometry N is 6.
